One molecule from US20030135880A1, “Compositions and methods for halogenation reactions” (priority 2002, published 2003) can be followed below.

The target in the test is PrnA (Pseudomonas fluorescens, UniProt P95480). The test is described as follows: Halogenation by PrnA expressed in transgenic plants, immunopurified and assayed in vitro (Example 5). Further details: made in house; host or cells: Transgenic Arabidopsis thaliana (Columbia) lines 3 and 12; leaf extract immunopurified on goat anti-PrnA sera with anti-goat-IgG-agarose. It is filed as biochemical. The following applies: immunopurified PrnA with Fre (20 microliter, 21 microgram/ml), overnight. On the procedure: Arabidopsis thaliana, ecotype Columbia, is transformed (by the Agrobacterium-mediated transformation method) with the four nucleic acid molecules of the pyrrolnitrin operon, encoding PrnA, PrnB, PrnC & PrnD, each behind the ubiquitin promoter as described below in Example 6.
Two transformed lines (3 and 12) and a nontransformed control line are grown and leaves (1 g) harvested. The leaves are frozen in liquid N2, powdered in a mortar and extracted with 6 ml of LS buffer (50 mM HEPES, pH 7.5, 5 mM NaCl). After centrifugation at 5000×g for 15 min to pellet debris, the supernate is filtered through glass wool to remove residual particles.
PrnA is immunopurified by mixing extract (3 ml) with an affinity matrix. The affinity matrix is prepared by mixing for 30 minutes, at room temperature, 100 microliters of rabbit antigoat-IgG-agarose (purchased from Sigma) with 50 microliters of goat anti-PrnA sera. Then the agarose beads are washed three times with 1 ml of LS buffer. After mixing the 3 ml sample with the affinity matrix, unabsorbed material is removed from the beads by washing with LS buffer. A positive control sample is prepared by mixing 5 microliter of PrnA (0.36 microgram/microliter) purified from Pseudomonas fluorescens as described in Example 1 with 3 ml LS then treating in parallel with the plant extract samples. […]

B1: PrnA: PrnA purified from Pseudomonas fluorescens, positive control added to non-transformed plant extract (protein)
chain: MNKPIKNIVIVGGGTAGWMAASYLVRALQQQANITLIESAAIPRIGVGEATIPSLQKVFFDFLGIPEREWMPQVNGAFKAAIKFVNWRKSPDPSRDDHFYHLFGNVPNCDGVPLTHYWLRKREQGFQQPMEYACYPQPGALDGKLAPCLSDGTRQMSHAWHFDAHLVADFLKRWAVERGVNRVVDEVVDVRLNNRGYISNLLTKEGRTLEADLFIDCSGMRGLLINQALKEPFIDMSDYLLCDSAVASAVPNDDARDGVEPYTSSIAMNSGWTWKIPMLGRFGSGYVFSSHFTSRDQATADFLKLWGLSDNQPLNQIKFRVGRNKRAWVNNCVSIGLSSCFLEPLESTGIYFIYAALYQLVKHFPDTSFDPRLSDAFNAEIVHMFDDCRDFVQAHYFTTSRDDTPFWLANRHDLRLSDAIKEKVQRYKAGLPLTTTSFDDSTYYETFDYEFKNFWLNGNYYCIFAGLGMLPDRSLPLLQHRPESIEKAEAMFASIRREAERLRTSLPTNYDYLRSLRDGDAGLSRGQRGPKLAAQESL
As to B1, the “level of 7-Cl-Trp found” value stood at 185 pmol.
